The supplement of paper PMC9112550, “Optimization of the antimicrobial peptide Bac7 by deep mutational scanning” (BMC Biology, 2022)

System: Escherichia coli TOP10
Assay: shrunken log2 fold change of peptide-encoding DNA abundance (4.5 h post-induction vs induction); higher = less antimicrobial activity (less host growth inhibition)
Conditions: time post-induction: 4.5 h; library: site-saturation at positions 5, 18, 19, 20
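Note: peptides expressed intracellularly from a pBAD plasmid library in pooled LB shake-flask culture, induced with 0.3% L-arabinose, DNA abundance read by NGS, three biological replicates, DESeq2 with apeglm shrinkage.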

Sequence	shrunken log2 fold change
RRIRHRPPRLPRPRPRPQIVPRP	-0.238
RRIRIRPPRLPRPRPRPIIIPRP	-0.598
RRIRLRPPRLPRPRPRPRAIPRP	0.0282
RRIRARPPRLPRPRPRPMKLPRP	0.0594
RRIRQRPPRLPRPRPRPNHQPRP	-0.0841
RRIRGRPPRLPRPRPRPWSQPRP	0.142
RRIRSRPPRLPRPRPRPYHFPRP	-1.8
RRIRWRPPRLPRPRPRPIKMPRP	0.212
RRIRGRPPRLPRPRPRPIQCPRP	0.0816
RRIRLRPPRLPRPRPRPFFYPRP	-0.343
RRIRLRPPRLPRPRPRPMEFPRP	-0.00133
RRIRNRPPRLPRPRPRPPQEPRP	-0.0479
RRIRQRPPRLPRPRPRPNCAPRP	0.00462
RRIRTRPPRLPRPRPRPRVYPRP	-0.454
RRIRWRPPRLPRPRPRPQWIPRP	0.0797
RRIRRRPPRLPRPRPRPNKTPRP	-0.00203
RRIRTRPPRLPRPRPRPICSPRP	-0.0969
RRIRKRPPRLPRPRPRPPAKPRP	0.408
RRIRPRPPRLPRPRPRPASIPRP	-0.228
RRIRMRPPRLPRPRPRPLWIPRP	-0.00647
RRIRERPPRLPRPRPRPSICPRP	-0.151
RRIRTRPPRLPRPRPRPWSKPRP	-0.0826
RRIRARPPRLPRPRPRPRMIPRP	0.219
RRIRHRPPRLPRPRPRPCYGPRP	-0.238
RRIRRRPPRLPRPRPRPGDTPRP	0.0234

Sequence	shrunken log2 fold change
RRIRMRPPRLPRPRPRPYGRPRP	0.0596
RRIRCRPPRLPRPRPRPQVYPRP	-0.313
RRIRARPPRLPRPRPRPHKHPRP	0.0909
RRIRIRPPRLPRPRPRPMPVPRP	-0.244
RRIRSRPPRLPRPRPRPDGYPRP	-0.164
RRIRGRPPRLPRPRPRPYDWPRP	0.0669
RRIRWRPPRLPRPRPRPPGLPRP	0.601
RRIRKRPPRLPRPRPRPYWNPRP	-0.106
RRIRTRPPRLPRPRPRPVRYPRP	-0.028
RRIRGRPPRLPRPRPRPECQPRP	0.381
RRIRHRPPRLPRPRPRPAKHPRP	-0.0767
RRIRCRPPRLPRPRPRPYQSPRP	-0.307
RRIRVRPPRLPRPRPRPQRTPRP	-0.0863
RRIRFRPPRLPRPRPRPAGEPRP	0.191
RRIRVRPPRLPRPRPRPIGYPRP	0.117
RRIRKRPPRLPRPRPRPNNFPRP	-0.0233
RRIRFRPPRLPRPRPRPRWAPRP	0.305
RRIRNRPPRLPRPRPRPIPEPRP	-0.147
RRIRDRPPRLPRPRPRPGLNPRP	0.184
RRIRSRPPRLPRPRPRPGLNPRP	-0.207
RRIRSRPPRLPRPRPRPKEWPRP	-0.0193
RRIRLRPPRLPRPRPRPYRQPRP	-0.0238
RRIRQRPPRLPRPRPRPEDWPRP	-0.106
RRIRVRPPRLPRPRPRPGCTPRP	-0.246
RRIRQRPPRLPRPRPRPVERPRP	-0.0839

Sequence	shrunken log2 fold change
RRIRIRPPRLPRPRPRPMRFPRP	-0.0444
RRIRWRPPRLPRPRPRPTFTPRP	0.195
RRIRVRPPRLPRPRPRPNRRPRP	-0.0977
RRIRDRPPRLPRPRPRPFVEPRP	-0.0362
RRIRYRPPRLPRPRPRPMCPPRP	-0.217
RRIRRRPPRLPRPRPRPNLWPRP	0.552
RRIRYRPPRLPRPRPRPADKPRP	-0.419
RRIRWRPPRLPRPRPRPPVGPRP	0.167
RRIRKRPPRLPRPRPRPGWPPRP	0.424
RRIRYRPPRLPRPRPRPAQQPRP	0.0788
RRIRLRPPRLPRPRPRPARDPRP	0.426
RRIRLRPPRLPRPRPRPNSSPRP	-0.11
RRIRYRPPRLPRPRPRPQAGPRP	0.00284
RRIRERPPRLPRPRPRPHLSPRP	-0.19
RRIRWRPPRLPRPRPRPQITPRP	-0.216
RRIRNRPPRLPRPRPRPIWRPRP	0.00377
RRIRKRPPRLPRPRPRPLKYPRP	0.072
RRIRRRPPRLPRPRPRPFWIPRP	0.0724
RRIRRRPPRLPRPRPRPSEFPRP	0.00596
RRIRNRPPRLPRPRPRPCCSPRP	-0.0427
RRIRKRPPRLPRPRPRPQWKPRP	0.17
RRIRRRPPRLPRPRPRPSSMPRP	-0.143
RRIRPRPPRLPRPRPRPKYPPRP	-0.672
RRIRCRPPRLPRPRPRPHFHPRP	-0.712
RRIRYRPPRLPRPRPRPVVCPRP	-0.408

Sequence	shrunken log2 fold change
RRIRMRPPRLPRPRPRPYKIPRP	-0.544
RRIRWRPPRLPRPRPRPMKGPRP	-0.363
RRIRERPPRLPRPRPRPCTVPRP	-0.0354
RRIRHRPPRLPRPRPRPAGTPRP	-0.04
RRIRIRPPRLPRPRPRPRSYPRP	-0.381
RRIRPRPPRLPRPRPRPAGRPRP	0.395
RRIRTRPPRLPRPRPRPQQIPRP	-0.0971
RRIRWRPPRLPRPRPRPPWLPRP	0.526
RRIRYRPPRLPRPRPRPSNVPRP	-1.01
RRIRDRPPRLPRPRPRPLMEPRP	0.117
RRIRGRPPRLPRPRPRPAQNPRP	0.81
RRIRWRPPRLPRPRPRPGITPRP	0.0178
RRIRTRPPRLPRPRPRPLPQPRP	0.165
RRIRSRPPRLPRPRPRPPLQPRP	0.504
RRIRNRPPRLPRPRPRPSCRPRP	0.0168
RRIRKRPPRLPRPRPRPSDLPRP	0.154
RRIRKRPPRLPRPRPRPCADPRP	0.006
RRIRSRPPRLPRPRPRPVCVPRP	0.0943
RRIRRRPPRLPRPRPRPHRHPRP	0.0704
RRIRLRPPRLPRPRPRPMCGPRP	0.0137
RRIRHRPPRLPRPRPRPYRPPRP	-0.115
RRIRNRPPRLPRPRPRPIGNPRP	0.0106
RRIRSRPPRLPRPRPRPGDNPRP	0.0473
RRIRVRPPRLPRPRPRPEKYPRP	-0.171
RRIRIRPPRLPRPRPRPGKQPRP	-0.0943

Sequence	shrunken log2 fold change
RRIRRRPPRLPRPRPRPNITPRP	-0.128
RRIRNRPPRLPRPRPRPTNRPRP	-0.00917
RRIRVRPPRLPRPRPRPIYMPRP	-0.438
RRIRKRPPRLPRPRPRPQLGPRP	0.378
RRIRWRPPRLPRPRPRPACMPRP	0.164
RRIRERPPRLPRPRPRPVADPRP	-0.0439
RRIRVRPPRLPRPRPRPFHPPRP	-0.309
RRIRERPPRLPRPRPRPYTMPRP	-0.0431
RRIRQRPPRLPRPRPRPFLRPRP	-0.0193
RRIRCRPPRLPRPRPRPFMTPRP	-0.737
RRIRDRPPRLPRPRPRPIHGPRP	-0.0134
RRIRKRPPRLPRPRPRPTENPRP	0.143
RRIRFRPPRLPRPRPRPISDPRP	0.0114
RRIRYRPPRLPRPRPRPMSAPRP	-0.0208
RRIRTRPPRLPRPRPRPCTPPRP	-0.214
RRIRDRPPRLPRPRPRPQFQPRP	-0.145
RRIRRRPPRLPRPRPRPTWVPRP	0.275
RRIRNRPPRLPRPRPRPSVDPRP	-0.0699
RRIRLRPPRLPRPRPRPNPVPRP	0.0363
RRIRCRPPRLPRPRPRPMEEPRP	0.0671
RRIRFRPPRLPRPRPRPRPNPRP	0.4
RRIRFRPPRLPRPRPRPVSFPRP	-0.414
RRIRDRPPRLPRPRPRPLYQPRP	-0.0432
RRIRHRPPRLPRPRPRPVPLPRP	-0.396
RRIRWRPPRLPRPRPRPIYQPRP	-0.288

Sequence	shrunken log2 fold change
RRIRMRPPRLPRPRPRPKFNPRP	-0.111
RRIRWRPPRLPRPRPRPEHHPRP	-0.0625
RRIRGRPPRLPRPRPRPEQTPRP	0.388
RRIRDRPPRLPRPRPRPAKAPRP	0.0972
RRIRNRPPRLPRPRPRPPENPRP	0.181
RRIRCRPPRLPRPRPRPVALPRP	0.0824
RRIRIRPPRLPRPRPRPGMHPRP	0.00513
RRIRVRPPRLPRPRPRPCSAPRP	0.0399
RRIRIRPPRLPRPRPRPRFWPRP	0.345
RRIRWRPPRLPRPRPRPNNLPRP	-0.513
RRIRVRPPRLPRPRPRPFDHPRP	-0.557
RRIRGRPPRLPRPRPRPNMQPRP	0.492
RRIRYRPPRLPRPRPRPNPMPRP	-0.788
RRIRMRPPRLPRPRPRPTESPRP	0.0389
RRIRMRPPRLPRPRPRPYVCPRP	-0.00867
RRIRTRPPRLPRPRPRPSINPRP	-0.63
RRIRHRPPRLPRPRPRPDPTPRP	-0.0262
RRIRFRPPRLPRPRPRPVGQPRP	-0.0211
RRIRNRPPRLPRPRPRPEMFPRP	0.0119
RRIRHRPPRLPRPRPRPGDCPRP	-0.0887
RRIRARPPRLPRPRPRPKFLPRP	0.288
RRIRCRPPRLPRPRPRPTQIPRP	0.452
RRIRTRPPRLPRPRPRPSTVPRP	0.0213
RRIRIRPPRLPRPRPRPGWDPRP	0.105
RRIRMRPPRLPRPRPRPHIMPRP	-0.422
